T1: recombinant human soluble CD14 (Homo sapiens, UniProt P08571)
T1 construct: made in house; host or cells: CHO cells (clone 523, vector pEE14), secreted into culture medium
T1 sequence (P08571 20-375): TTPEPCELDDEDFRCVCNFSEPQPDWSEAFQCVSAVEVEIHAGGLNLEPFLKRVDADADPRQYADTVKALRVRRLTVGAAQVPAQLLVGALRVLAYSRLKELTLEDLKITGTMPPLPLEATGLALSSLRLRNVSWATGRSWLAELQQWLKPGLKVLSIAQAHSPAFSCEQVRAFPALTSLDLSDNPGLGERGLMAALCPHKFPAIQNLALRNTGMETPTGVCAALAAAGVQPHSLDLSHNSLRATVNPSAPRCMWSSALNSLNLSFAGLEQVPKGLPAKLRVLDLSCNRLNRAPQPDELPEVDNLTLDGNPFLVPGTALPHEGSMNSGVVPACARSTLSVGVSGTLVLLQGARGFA

T2: LPS-Binding Protein (LBP) (Oryctolagus cuniculus, UniProt P17454)
T2 construct: isolated from acute phase rabbit serum; from tissue; host or cells: acute phase rabbit serum
T2 sequence (P17454 27-482): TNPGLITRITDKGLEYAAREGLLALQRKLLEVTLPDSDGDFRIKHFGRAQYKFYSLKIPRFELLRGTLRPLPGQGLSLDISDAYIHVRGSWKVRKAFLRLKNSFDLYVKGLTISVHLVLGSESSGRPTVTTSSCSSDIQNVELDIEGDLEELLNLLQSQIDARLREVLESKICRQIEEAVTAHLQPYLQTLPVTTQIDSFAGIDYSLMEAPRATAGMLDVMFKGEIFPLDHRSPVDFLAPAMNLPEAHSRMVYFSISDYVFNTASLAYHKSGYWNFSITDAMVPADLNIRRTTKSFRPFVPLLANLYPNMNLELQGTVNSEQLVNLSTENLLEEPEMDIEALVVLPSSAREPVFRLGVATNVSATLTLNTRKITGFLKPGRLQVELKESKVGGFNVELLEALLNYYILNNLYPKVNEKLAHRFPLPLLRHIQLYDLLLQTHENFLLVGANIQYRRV

T3: CD14 (Homo sapiens, UniProt P08571)
T3 construct: made in house; host or cells: CHO cells (clone 523, vector pEE14), secreted into culture medium
T3 sequence (P08571 20-375): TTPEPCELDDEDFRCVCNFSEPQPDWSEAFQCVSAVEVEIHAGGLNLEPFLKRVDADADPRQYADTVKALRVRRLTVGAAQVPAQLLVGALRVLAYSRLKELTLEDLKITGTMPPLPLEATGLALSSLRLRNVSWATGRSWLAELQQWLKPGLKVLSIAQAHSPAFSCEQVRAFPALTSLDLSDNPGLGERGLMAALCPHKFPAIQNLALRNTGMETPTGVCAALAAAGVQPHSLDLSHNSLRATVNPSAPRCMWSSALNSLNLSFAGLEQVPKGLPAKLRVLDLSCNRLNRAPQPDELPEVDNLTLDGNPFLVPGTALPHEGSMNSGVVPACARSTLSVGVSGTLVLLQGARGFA


What was measured:
[1] = biological target: T1, recombinant human soluble CD14; test: F-LPS/CD14 fluorescence assay comparing LBP with other LPS-binding proteins; conditions: 20 ng/ml F-LPS; for effect on FI of F-LPS with CD14 when replacing LBP: protein 300 ng/ml, CD14 0 to 10 ug/ml
Procedure: For the assay, LBP or the other known LPS-binding proteins were added to the admixture at a concentration of 300 nanograms/milliliter (ng/ml) and were separately admixed with varying amounts the recombinant human soluble CD14 ranging in concentration from 0 to 10 micrograms/milliliter (ug/ml).
To this admixture, 20 ng/ml of F-LPS prepared in Example 1 were admixed to form a binding admixture. Fluorescence measurements were then performed as described above to determine the effect of LBP and CD14 on the FI of F-LPS.

[2] = biological target: T2, LPS-Binding Protein (LBP); test: Fluorescence spectroscopy assay of F-LPS binding to LBP; set-up: species or system rabbit; conditions: for fluorescence intensity, +LBP (F-LPS+peptide+LBP): 10 ng/ml F-LPS + 1 mM polypeptide + 1 ug/ml rabbit LBP, no-peptide control 2700 (Experiment A, peptides 1-4), 2300 (Experiment B, peptides 5-8); for fluorescence intensity, +peptide (F-LPS+peptide): 10 ng/ml F-LPS + 1 mM polypeptide, before LBP; for fluorescence intensity, +F-LPS (F-LPS alone): 10 ng/ml F-LPS in PBS/2 mM EDTA pH 7.4, before peptide addition (baseline of the run); for inhibition of LPS binding to LBP (in words): 1 mM polypeptide, from Table 3
Procedure: The fluorescence spectroscopy assay method detects the intensity of fluorescence of fluoresceinated LPS in the presence of LBP.
The assay reaction admixture was prepared by admixing 10 ng/ml F-LPS and 1 ug/ml rabbit LBP into a solution of phosphate buffered saline (PBS) containing 2 mM EDTA, pH 7.4. The FI was then measured with an SLM 8000 photon counting spectrophotometer (SLM, Urbana, Ill.). A continuous FI output was measured over time while first the F-LPS was added to the PBS/EDTA solution, and then the LBP was added.
To study the effect of an LBP-derived polypeptide upon the effect of LBP on the FI of F-LPS, a polypeptide was added to the assay admixture at a concentration of 1 mM polypeptide prior to the addition of LBP, which was typically added about 30 to 150 seconds after the polypeptide was added to the admixture.

CD14 [3] = biological target: T3, CD14; test: Competition of non-fluoresceinated LPS with F-LPS in LBP/CD14 binding assay; conditions: similar to FIG. 3 with Re595 LPS
CD14 [4] = biological target: T3, CD14; test: Fluorescence spectroscopy assay of F-LPS binding to soluble CD14 in presence of LBP, with peptides; conditions: for fluorescence intensity, +CD14: 10 ug/ml soluble CD14 added before LBP, no-peptide control 1500; for fluorescence intensity, +LBP: F-LPS + polypeptide + 10 ug/ml sCD14 + 40 ng/ml rabbit LBP, no-peptide control 6300; for inhibition of fluorescence of F-LPS / LPS binding to LBP in presence of LBP and CD14 (in words): from Table 4
Procedure: (§1) The fluorescence spectroscopy assay method also detects the intensity of fluorescence of fluoresceinated LPS in the presence of LBP and soluble CD14.
(§2) The assay to measure binding interactions between CD14 and LPS or LPS-LBP complex was conducted essentially as described in Example 1 with the following exceptions. First, the amount of rabbit LBP in the reaction admixture was 40 ng/ml. Second, soluble CD14 (sCD14) prepared as described in Example 2A was added to the reaction admixture at a concentration of 10 ug/ml prior to addition of the LBP to the reaction admixture. Peptides 6, 7 and 8, whose sequences are shown in Table 2, were each separately added to assay reaction admixtures, and the resulting FI was measured.

Human CD14 = test: as above; conditions: for fluorescence intensity, +peptide (F-LPS+peptide): F-LPS + polypeptide, before CD14 and LBP; for fluorescence intensity, +F-LPS (F-LPS alone): before peptide addition (baseline of the run)
Procedure: as §1, §2

Molecule | fluorescence intensity, +LBP (F-LPS+peptide+LBP) [2] [FIU] | fluorescence intensity, +peptide (F-LPS+peptide) [2] [FIU] | fluorescence intensity, +F-LPS (F-LPS alone) [2] [FIU] | inhibition of LPS binding to LBP (in words) [2] | other results
lysozyme |  |  |  |  | effect on FI of F-LPS with CD14 when replacing LBP [1]: no effect was detected
apotransferrin |  |  |  |  | effect on FI of F-LPS with CD14 when replacing LBP [1]: no effect was detected
TNPGLITRITDKGL [Peptide 1] | 2400 | 900 | 900 |  | 
GIDYSLMEAPRATA [Peptide 5] | 2000 | 750 | 750 |  | 
CCCCCCCCCCC[C@@H](O)CC(=O)N[C@H]1[C@H](OC[C@H]2O[C@H](OP(=O)(O)O)[C@H](NC(=O)C[C@H](O)CCCCCCCCCCC)[C@@H](OC(=O)C[C@H](O)CCCCCCCCCCC)[C@@H]2O)O[C@H](CO)[C@@H](OP(=O)(O)O)[C@@H]1OC(=O)C[C@H](O)CCCCCCCCCCC [lipid IVa] |  |  |  |  | inhibition of FI increase by non-fluoresceinated LPS preparations (in words) (CD14 [3]): dose dependent inhibition
PSSAREPVFRLGVAT [Peptide 6] | 1500 | 800 | 750 | strongly inhibit LPS binding to LBP | fluorescence intensity, +CD14 (CD14 [4]): 1300 FIU; fluorescence intensity, +LBP (CD14 [4]): 3500 FIU; inhibition of fluorescence of F-LPS / LPS binding to LBP in presence of LBP and CD14 (in words) (CD14 [4]): strongly inhibit LPS binding to LBP; fluorescence intensity, +peptide (F-LPS+peptide) (Human CD14): 1300 FIU; fluorescence intensity, +F-LPS (F-LPS alone) (Human CD14): 1200 FIU
CSSDIQNVELDIEGDLEELLNLLQSQIDARLREVLESKI [Peptide 3] | 2100 | 1300 | 800 | weakly inhibit LPS binding to LBP | 
QTHENFLLVGANIQYRRV [Peptide 8] | 2300 | 800 | 700 |  | fluorescence intensity, +CD14 (CD14 [4]): 1500 FIU; fluorescence intensity, +LBP (CD14 [4]): 5400 FIU; fluorescence intensity, +peptide (F-LPS+peptide) (Human CD14): 1400 FIU; fluorescence intensity, +F-LPS (F-LPS alone) (Human CD14): 1400 FIU
KVRKAFLRLKNSFDL [Peptide 2] | 800 | 800 | 900 | strongly inhibit LPS binding to LBP | 
lipid A [synthetic lipid A] |  |  |  |  | inhibition of FI increase by non-fluoresceinated LPS preparations (in words) (CD14 [3]): dose dependent inhibition
LQPYLQTLPVTTQIDS [Peptide 4] | 2300 | 900 | 800 |  | 
ATLTLNTRKIT [Peptide 7] | 1300 | 1600 | 800 | strongly inhibit LPS binding to LBP | fluorescence intensity, +CD14 (CD14 [4]): 2000 FIU; fluorescence intensity, +LBP (CD14 [4]): 1500 FIU; inhibition of fluorescence of F-LPS / LPS binding to LBP in presence of LBP and CD14 (in words) (CD14 [4]): strongly inhibit LPS binding to LBP; fluorescence intensity, +peptide (F-LPS+peptide) (Human CD14): 2400 FIU; fluorescence intensity, +F-LPS (F-LPS alone) (Human CD14): 1200 FIU
LBP: LPS binding protein isolated from acute phase rabbit serum (protein, UniProt P17454 27-482, looked up) Lipopolysaccharide-binding …: TNPGLITRITDKGLEYAAREGLLALQRKLLEVTLPDSDGDFRIKHFGRAQYKFYSLKIPRFELLRGTLRPLPGQGLSLDISDAYIHVRGSWKVRKAFLRLKNSFDLYVKGLTISVHLVLGSESSGRPTVTTSSCSSDIQNVELDIEGDLEELLNLLQSQIDARLREVLESKICRQIEEAVTAHLQPYLQTLPVTTQIDSFAGIDYSLMEAPRATAGMLDVMFKGEIFPLDHRSPVDFLAPAMNLPEAHSRMVYFSISDYVFNTASLAYHKSGYWNFSITDAMVPADLNIRRTTKSFRPFVPLLANLYPNMNLELQGTVNSEQLVNLSTENLLEEPEMDIEALVVLPSSAREPVFRLGVATNVSATLTLNTRKITGFLKPGRLQVELKESKVGGFNVELLEALLNYYILNNLYPKVNEKLAHRFPLPLLRHIQLYDLLLQTHENFLLVGANIQYRRV |  |  |  |  | maximum FI ([1]; LBP 300 ng/ml, plateau at CD14 about 10 ug/ml): greater than 90,000 fluorescence units

Source: patent US5705398A, “Methods for identifying inhibitors of LPS-mediated LBP binding” (The Scripps Research Institute, priority 1994, dated 1998)
